Numbering of substitutions follows the chain as printed. Numbers in names are those of the source.
B1: LAH31 with light chain position 92 reverted to germline (R92L) (antibody, V domains shown)
VH: QVQLEQSGAEVKKPGSSVKVSCKASGPMFSRSAFSWVRQAPGQGLEWMGRIIPTVDLKNYAQKFQGRVTFTADKSTATSYMELRSLKSEDTAVYYCARMGSGSSYYGMDVWGLGTTVTVSS
VL: DIVMTQSPLSLPVIPGEPASISCRSSQSLLQSNGNNYLDWYLQKPGQSPQLLIYLGSNRASGVPDRFSGSGSGTDFTLTISRVEAEDVGVYYCLQALQSSVLTFGGGTKLEIK
notes: IgG1
B2: LAH31 with light chain position 94 reverted to germline (Ser94 to Thr94) (antibody, V domains shown)
VH: B1 VH
VL: B1 VL with L97R, S99T
B3: LAH31 with light chain position 95 reverted to germline (Ser95 to Pro95) (antibody, V domains shown)
VH: B1 VH
VL: B1 VL with L97R, S100P
B4: LAH31 mouse IgG2c LALA-PG mutant (antibody, V domains shown)
VH: B1 VH
VL: B1 VL with L97R
B5: LAH31 mouse IgG2c KA mutant (antibody, V domains shown)
VH: B1 VH
VL: B1 VL with L97R
B6: LAH31 mouse IgG2c LALA mutant (antibody, V domains shown)
VH: B1 VH
VL: B1 VL with L97R

biological target: X31 (H3N2) trimeric full-length HA (prefusion stabilized HA) (influenza A virus X31 (H3N2), biotin (biotinylated for capture on streptavidin)); test: ELISA; conditions: both partners purified

Binder	binding result
B1	binds
B2	binds
B3	binds
B4	binds
B5	binds
B6	binds

biological target: HA of H1 A/Narita/1/2009 (influenza A virus A/Narita/1/2009 (H1)); test: ELISA; conditions: both partners purified

Binder	binding result
B2	binds
B3	binds

— paper PMC10411744 (PLOS Pathogens, 2023)
